US20120225079A1

Molecular target: cleaved human IgG (human IgG cleaved with the endopeptidases IdeE and IdeE2) (human)
Experiment: cell-based or functional assay

## recombinant mature EndoSe of Streptococcus equi subsp. equi (lacking the N-terminal signal sequence) (enzyme)
  lowest EndoSe concentration at which activity was observed (SDS-PAGE): 2.6 µg/mL
